This note sets out measurements from article PMC3012730, “The Actinobacillus pleuropneumoniae HMW1C-Like Glycosyltransferase Mediates N-Linked Glycosylation of the Haemophilus influenzae HMW1 Adhesin” (PLoS ONE, 2010).

The subject of data set [1] is O=c1ccn([C@@H]2O[C@H](CO[P@@](=O)(O)O[P@@](=O)(O)O[C@H]3O[C@H](CO)[C@@H](O)[C@H](O)[C@H]3O)[C@@H](O)[C@H]2O)c(=O)[nH]1. In words: purified protein. The following applies: apparent Km, fixed acceptor protein His-HMW1ct (standard 3.2 µM), 50 mM HEPES pH 8.0, 50 mM KCl, 5 mM MgCl2, room temperature.
In data set [2] the test system is O=c1ccn([C@@H]2O[C@H](COP(=O)(O)OP(=O)(O)O[C@H]3O[C@H](CO)[C@H](O)[C@H](O)[C@H]3O)[C@@H](O)[C@H]2O)c(=O)[nH]1. Nature of the data set: purified protein. As to conditions: apparent Km, fixed acceptor protein His-HMW1ct (standard 3.2 µM), 50 mM HEPES pH 8.0, 50 mM KCl, 5 mM MgCl2, room temperature.

The Km is the substrate concentration at which the rate is half of its maximum. By Vmax is commonly meant the top rate of the reaction or transport when substrate is in excess. What is called kcat is the maximal rate divided by the concentration of active sites. A word on the kcat/Km: it is the second-order rate constant that governs catalysis at low substrate concentration. Turning to “ApHMW1C (Actinobacillus pleuropneumoniae serovar 5b str. L20)”, in data set [1], the Michaelis-Menten constant (Km) amounted to 38.9 ± 5.8 µM, the Vmax came out at 0.109 µmol/min/mg, the kcat was determined as 0.13 ± 0.005 s⁻¹ and the kcat/Km was found to be 3300 ± 800 M⁻¹ s⁻¹. Besides, in data set [2], the Km was 147.5 ± 24.8 µM, the Vmax was determined as 0.0643 µmol/min/mg, the kcat turned out to be 0.077 ± 0.005 s⁻¹ and the kcat/Km was 520 ± 210 M⁻¹ s⁻¹.
